The values below come from patent publication US10512669.

“And” between values parts separate entries of the source, which are not always exact repeats. Identical values can stand only once.

The experiment addresses TACE expressed on resting and LPS-stimulated THP-1 cells, P78536. Put plainly: cell-based or functional assay.

Sequence of TACE expressed on resting and LPS-stimulated THP-1 cells, P78536 (P78536 215-824 limits assumed): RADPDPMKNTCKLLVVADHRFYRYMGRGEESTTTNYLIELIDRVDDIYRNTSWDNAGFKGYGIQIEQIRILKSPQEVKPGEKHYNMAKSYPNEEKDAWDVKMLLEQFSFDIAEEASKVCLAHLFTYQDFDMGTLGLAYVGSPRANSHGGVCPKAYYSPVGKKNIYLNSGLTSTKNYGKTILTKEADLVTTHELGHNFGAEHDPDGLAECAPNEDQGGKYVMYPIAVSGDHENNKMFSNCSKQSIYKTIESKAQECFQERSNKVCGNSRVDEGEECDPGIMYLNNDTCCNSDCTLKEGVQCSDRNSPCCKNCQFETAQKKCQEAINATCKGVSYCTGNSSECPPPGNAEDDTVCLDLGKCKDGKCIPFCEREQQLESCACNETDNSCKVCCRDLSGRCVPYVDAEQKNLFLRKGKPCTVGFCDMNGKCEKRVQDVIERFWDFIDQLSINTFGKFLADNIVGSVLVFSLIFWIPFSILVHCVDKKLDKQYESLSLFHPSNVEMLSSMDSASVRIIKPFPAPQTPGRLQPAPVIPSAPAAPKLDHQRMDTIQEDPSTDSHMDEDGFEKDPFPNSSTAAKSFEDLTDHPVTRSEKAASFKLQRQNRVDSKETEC

B1: Rhesus θ-defensin-1 (RTD-1) (peptide)
peptide: GFCRCLCRRGVCRCICTR
modifications: not checked
Turning to B1, the IC50, inhibition of TACE in cell-based assay on THP-1 cells was 15 µg/ml and 7.4 µM.
